PMC4617317

Assays:
[1] = system: H-NS (Vibrio cholerae C7258?); test: EMSA
[2] = system: VpsT (Vibrio cholerae C7258?); test: EMSA

Substance	Kd [1] [nM]	Kd [2] [nM]
vpsA promoter -223 to -139	138	42.6
vpsL promoter -262 to -185	204	35.4
